Experimental data as given in US20070066802A1.

Experiments:
Assay in all cases: cell-based or functional assay
[1] = molecular target: K^b-CD28[L→G]-ζ receptor (mouse) (UniProt P31041)
[2] = molecular target: K^b-CD28[L→G]-ζ receptor pulsed with ovalbumin 257-264 peptide (SIINFEKL) (mouse) (UniProt P31041)
[3] = molecular target: K^b-CD28-ζ receptor pulsed with ovalbumin 257-264 peptide (SIINFEKL) (mouse) (UniProt P31041)

IFN-γ release by RMTC [1]	in vivo depletion of Vα2+ OT-1 cells from the LN, peptide-pulsed against unpulsed RMTC [2]	in vivo depletion of Vα2+ OT-1 cells from the spleen, peptide-pulsed against unpulsed RMTC [2]	lysis of OT-1 target cells, peptide concentration for equivalent lysis against K^b-CD28-ζ RMTC (fold lower peptide concentration) [2]	specific lysis of OT-1 T cells, RMTC dose for equivalent lysis against K^b-CD28-ζ RMTC (fold fewer RMTC) [2]	in vivo depletion of Vα2+ OT-1 cells from the LN, peptide-pulsed against unpulsed RMTC [3]	in vivo depletion of Vα2+ OT-1 cells from the spleen, peptide-pulsed against unpulsed RMTC [3]	Substance
> 3.5 fold							clone AF6-88.5 anti-mouse H-2K^b (antibody)
	98%	99%	5 to 20	3 to 9	93%	96%	OT-1 TCR (rearranged ovalbumin 257-264/H-2K^b restricted TCR)
